Assay results from patent US20120064547A1 (PROBIODRUG, published 2012).
Where no end group is shown, it is not given here. Side-chain parts run from the residue outwards. [ ]: non-standard residue; d: D form. SMPH = maleimide crosslinker coupling C-terminal Cys to BSA; pGlu = O=C1CC[C@@H](C(=O)O)N1

What was measured:
Aβ 4-40 [1] = biological target: T1, Aβ 4-40; assay: N3pE sandwich ELISA (4G8 capture, 6-1-6 detection), peptide at 25 pg/ml
T1 construct: No entry of its own

Aβ pE11-40 [2] = biological target: T2, Aβ pE11-40 (N-terminal Glu (position 11 of Aβ) cyclized to pyroglutamate); assay: as above
T2 construct: No entry of its own
T2 peptide: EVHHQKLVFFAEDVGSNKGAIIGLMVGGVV

Aβ 1-42 [3] = assay: as above
Aβ N3pE-40 peptide [4] = biological target: T3, Aβ N3pE-40 peptide (N-terminal Glu (position 3 of Aβ) cyclized to pyroglutamate); assay: DotBlot
T3 construct: Synthetic peptide; also called AβpE3-40; amyloid β N3pE-40

Aβ 4-40 [5] = biological target: T1, Aβ 4-40; assay: N3pE sandwich ELISA (4G8 capture, 6-1-6 detection), peptide at 800 pg/ml
Aβ pE11-40 [6] = biological target: T2, Aβ pE11-40; assay: as above
Aβ 1-42 [7] = assay: as above
[8] = biological target: T4, PepSpot peptide No. 5 EFRHDSGYEVHHQ; assay: PepSpot peptide membrane
T4 construct: Spotted on a PepSpot membrane; also called spot number 5
T4 peptide: EFRHDSGYEVHHQ

[9] = biological target: T5, PepSpot peptide No. 6 pEFRHDSGYEVHHQ; assay: PepSpot peptide membrane
T5 construct: Spotted on a PepSpot membrane; also called spot number 6; the specific Aβ N3pE-x spot
T5 peptide: [pGlu]FRHDSGYEVHHQ

[10] = biological target: T6, PepSpot peptide No. 7 FRHDSGYEVHHQK; assay: PepSpot peptide membrane
T6 construct: Spotted on a PepSpot membrane; also called spot number 7
T6 peptide: FRHDSGYEVHHQK

isoDAE-BSA = assay: IgG ELISA, hybridoma supernatant on peptide-BSA coat
[11] = biological target: T7, BSA-pGlu-6166 peptide (pGlu-FRHDSGC conjugated to bovine serum albumin); assay: as above
T7 construct: also called N3pE-BSA
T7 peptide: [pGlu]FRHDSGC([SMPH-BSA])

N11pE-BSA = assay: as above
N3E-BSA = assay: as above
N11E-BSA = assay: as above
Aβ N3pE-40 peptide [12] = biological target: T3, Aβ N3pE-40 peptide; assay: N3pE sandwich ELISA (4G8 capture, 6-1-6 detection), 3.125 pg/ml peptide
Aβ 4-40 [13] = biological target: T1, Aβ 4-40; assay: N3pE sandwich ELISA (4G8 capture, 6-1-6 detection), peptide at 12.5 pg/ml
Aβ pE11-40 [14] = biological target: T2, Aβ pE11-40; assay: as above
Aβ 1-42 [15] = assay: as above
Gonadoliberin = biological target: T8, Gonadoliberin (human, UniProt P01148 24-33, N-terminal pyroglutamate (pGlu peptide)); assay: SPR (Biacore 3000), peptide on CM5 chip, antibody 25 µg/ml
T8 construct: Whole peptide or N-terminal region
T8 peptide (looked up): QHWSYGLRPG

Big Gastrin = biological target: T9, Big Gastrin (human, UniProt P01350 59-92, limits assumed, N-terminal pyroglutamate (pGlu peptide)); assay: as above
T9 construct: Whole peptide or N-terminal region
T9 peptide (looked up): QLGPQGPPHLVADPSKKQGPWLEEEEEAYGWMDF

Collagen 1 = biological target: T10, Collagen 1 (human); assay: as above
T10 construct: Whole protein or N-terminal region, and which collagen chain

Neurotensin = biological target: T11, Neurotensin (human, UniProt P30990 151-163, N-terminal pyroglutamate (pGlu peptide)); assay: as above
T11 construct: Whole peptide or N-terminal region

Orexin A = biological target: T12, Orexin A (human, UniProt O43612 34-66, limits assumed, N-terminal pyroglutamate (pGlu peptide)); assay: as above
T12 construct: Whole peptide or N-terminal region
T12 peptide (looked up): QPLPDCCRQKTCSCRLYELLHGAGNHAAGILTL

MCP-1 = MCP-1 (human, UniProt P13500 24-99, limits assumed, N-terminal pyroglutamate (pGlu peptide)); assay: as above
MCP-2 = biological target: T13, MCP-2 (human, UniProt P80075 24-99, limits assumed, N-terminal pyroglutamate (pGlu peptide)); assay: as above
T13 construct: Whole peptide or N-terminal region
T13 sequence (peptide, looked up): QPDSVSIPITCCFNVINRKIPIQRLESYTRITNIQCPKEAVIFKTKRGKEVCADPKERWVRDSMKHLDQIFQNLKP

Aβ 4-40 [16] = biological target: T1, Aβ 4-40; assay: N3pE sandwich ELISA (4G8 capture, 6-1-6 detection), peptide at 400 pg/ml
Aβ pE11-40 [17] = biological target: T2, Aβ pE11-40; assay: as above
Aβ 1-42 [18] = assay: as above
Aβ 4-40 [19] = biological target: T1, Aβ 4-40; assay: N3pE sandwich ELISA (4G8 capture, 6-1-6 detection), peptide at 200 pg/ml
Aβ pE11-40 [20] = biological target: T2, Aβ pE11-40; assay: as above
Aβ 1-42 [21] = assay: as above
Aβ 4-40 [22] = biological target: T1, Aβ 4-40; assay: N3pE sandwich ELISA (4G8 capture, 6-1-6 detection), peptide at 50 pg/ml
Aβ pE11-40 [23] = biological target: T2, Aβ pE11-40; assay: as above
Aβ 1-42 [24] = assay: as above
Aβ N3pE-40 peptide [25] = biological target: T3, Aβ N3pE-40 peptide; assay: Biacore, peptide on CM5 chip, hybridoma supernatants
Aβ 4-40 [26] = biological target: T1, Aβ 4-40; assay: N3pE sandwich ELISA (4G8 capture, 6-1-6 detection), peptide at 100 pg/ml
Aβ pE11-40 [27] = biological target: T2, Aβ pE11-40; assay: as above
Aβ 1-42 [28] = assay: as above
Aβ N3pE-40 peptide [29] = biological target: T3, Aβ N3pE-40 peptide; assay: SPR Biacore 3000, AβpE3-40 on CM5 chip, antibody 1-100 nM, bivalent analyte model
Aβ N3pE-40 peptide [30] = biological target: T3, Aβ N3pE-40 peptide; assay: SPR Biacore 3000, AβpE3-40 on CM5 chip, bivalent analyte model

B1: Aβ 6-1-6 (monoclonal antibody of hybridoma cell line 6-1-6, DSM ACC 2924) (antibody, V domains shown)
VH: EVQLQQSGPELVKPGASMKISCKASGYSFTGYTMNWVKQSHGKNLEWIGLINPYNGVTRYNQKFKGKATLIVDKSSSTAYMELLSLTSEDSAVYYCTREAKREWDETYWGQGTLVTVSA
VL: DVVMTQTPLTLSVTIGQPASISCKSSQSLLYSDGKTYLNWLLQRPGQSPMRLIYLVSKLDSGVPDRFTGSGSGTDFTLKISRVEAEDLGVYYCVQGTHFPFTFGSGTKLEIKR
notes: Mouse hybridoma IgG; The entries as printed begin with a leader and end with the first residues of the constant region; Heavy chain amplified with primer MHCG1, light chain with MKC; also called clone 6-1-6; N3pE antibody clone 6-1-6
- absorbance (450 nm corrected by 540 nm) (Aβ 4-40 [1]): 0.044 absorbance
- absorbance (450 nm corrected by 540 nm) (Aβ pE11-40 [2]): 0.048 absorbance
- absorbance (450 nm corrected by 540 nm) (Aβ 1-42 [3]): 0.048 absorbance
- fold sensitivity against clone 12-1 (Aβ N3pE-40 peptide [4]): 125 fold
- absorbance (450 nm corrected by 540 nm) (Aβ 4-40 [5]): 0.055 absorbance
- absorbance (450 nm corrected by 540 nm) (Aβ pE11-40 [6]): 0.047 absorbance
- absorbance (450 nm corrected by 540 nm) (Aβ 1-42 [7]): 0.053 absorbance
- binding result [8]: binds
- binding result [9]: binds
- binding result [10]: binds
- signal in ELISA (OD) (isoDAE-BSA): 0.013 OD 405 nm
- signal in ELISA (OD) [11]: 1.38 OD 405 nm
- signal in ELISA (OD) (N11pE-BSA): 0.014 OD 405 nm
- signal in ELISA (OD) (N3E-BSA): 0.125 OD 405 nm
- signal in ELISA (OD) (N11E-BSA): 0.007 OD 405 nm
- signal-to-noise ratio at the LOQ (Aβ N3pE-40 peptide [12]): 1.3
- absorbance (450 nm corrected by 540 nm) (Aβ 4-40 [13]): 0.04 absorbance
- absorbance (450 nm corrected by 540 nm) (Aβ pE11-40 [14]): 0.046 absorbance
- absorbance (450 nm corrected by 540 nm) (Aβ 1-42 [15]): 0.043 absorbance
- % cross reactivity (against AβpE3-40) (Gonadoliberin): < 1%
- % cross reactivity (against AβpE3-40) (Big Gastrin): < 1%
- % cross reactivity (against AβpE3-40) (Collagen 1): < 1%
- % cross reactivity (against AβpE3-40) (Neurotensin): < 1%
- % cross reactivity (against AβpE3-40) (Orexin A): < 1%
- % cross reactivity (against AβpE3-40) (MCP-1): < 1%
- % cross reactivity (against AβpE3-40) (MCP-2): < 1%
- absorbance (450 nm corrected by 540 nm) (Aβ 4-40 [16]): 0.044 absorbance
- absorbance (450 nm corrected by 540 nm) (Aβ pE11-40 [17]): 0.044 absorbance
- absorbance (450 nm corrected by 540 nm) (Aβ 1-42 [18]): 0.048 absorbance
- absorbance (450 nm corrected by 540 nm) (Aβ 4-40 [19]): 0.046 absorbance
- absorbance (450 nm corrected by 540 nm) (Aβ pE11-40 [20]): 0.048 absorbance
- absorbance (450 nm corrected by 540 nm) (Aβ 1-42 [21]): 0.048 absorbance
- absorbance (450 nm corrected by 540 nm) (Aβ 4-40 [22]): 0.044 absorbance
- absorbance (450 nm corrected by 540 nm) (Aβ pE11-40 [23]): 0.045 absorbance
- absorbance (450 nm corrected by 540 nm) (Aβ 1-42 [24]): 0.05 absorbance
- association, fold of clone 12-1 (Aβ N3pE-40 peptide [25]): ~5 fold
- absorbance (450 nm corrected by 540 nm) (Aβ 4-40 [26]): 0.045 absorbance
- absorbance (450 nm corrected by 540 nm) (Aβ pE11-40 [27]): 0.048 absorbance
- absorbance (450 nm corrected by 540 nm) (Aβ 1-42 [28]): 0.047 absorbance
- Kd (Aβ N3pE-40 peptide [29]): 1.57 nM
- koff (Aβ N3pE-40 peptide [29]): 0.000263 s⁻¹
- kon (Aβ N3pE-40 peptide [29]): 167000 M⁻¹ s⁻¹

B2: Aβ 24-2-3 (monoclonal antibody of hybridoma cell line 24-2-3, DSM ACC 2926) (antibody, V domains shown)
VH: QVQLQQSGAELVRPGSSVKISCKASGYIFNNYWINWVKQRPGQGLEWIGQIYPGDGDTNYNGKFKGKATLTADKSSSTAYMQLSSLTSEDSAVYFCAREGYIVYWGQGTLVTVSA
VL: not shown
notes: Mouse hybridoma IgG; The entries as printed begin with a leader and end with the first residues of the constant region; Heavy chain amplified with primer MHCG2b, light chain with MKC; Tested as supernatant and as purified antibody; also called clone 24-2-3; N3pE antibody clone 24-2-3
- binding result [8]: binds
- binding result [9]: binds
- binding result [10]: binds
- signal in ELISA (OD) (isoDAE-BSA): 0.014 OD 405 nm
- signal in ELISA (OD) [11]: 1.77 OD 405 nm
- signal in ELISA (OD) (N11pE-BSA): 0.002 OD 405 nm
- signal in ELISA (OD) (N3E-BSA): 0.218 OD 405 nm
- Kd (Aβ N3pE-40 peptide [30]): 101 nM
- % cross reactivity (against AβpE3-40) (Gonadoliberin): < 1%
- % cross reactivity (against AβpE3-40) (Big Gastrin): < 1%
- % cross reactivity (against AβpE3-40) (Neurotensin): < 1%
- % cross reactivity (against AβpE3-40) (Orexin A): < 1%
- % cross reactivity (against AβpE3-40) (MCP-1): < 1%
- % cross reactivity (against AβpE3-40) (MCP-2): < 1%
